One block for each binder: values may come before it. Positions of bridges follow the written chain, without caps; N, C: chain ends. Non-standard residues stand in square brackets, D forms with d. No end group written: not given here. S5 = C=CCCC[C@](C)(N)C(=O)O
What was measured:
Settings in all cases: both partners purified
[1] = molecular target: T1, PTBP1 RRM1 (single first RNA-recognition motif with the α3-helix) (human); assay: MST; microscale thermophoresis of P-6F with the PTBP1 constructs
T1 chain: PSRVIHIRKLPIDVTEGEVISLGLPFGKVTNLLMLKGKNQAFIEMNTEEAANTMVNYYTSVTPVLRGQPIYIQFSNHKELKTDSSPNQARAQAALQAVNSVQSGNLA

[2] = molecular target: PTBP1 RRM12–L151G mutant (human); assay: as above
[3] = molecular target: T1, PTBP1 RRM1 (single first …); assay: fluorescence polarisation; direct binding: FITC-labelled P-6F titrated with the PTBP1 construct
[4] = molecular target: PTBP1 RRM12–L151G mutant (human); assay: as above
[5] = molecular target: T2, PTBP1 RRM1 and 2 combined (RRM12) (human); assay: fluorescence polarisation; competitive: peptide varied against RRM12 and the FAM-labelled RNA-2 tracer; Ki from loss of RNA binding
T2 construct: Methods and construct limits are not in the main text (supplementary file)

Kd [1]: 98.1 µM
Kd [2]: 44.5 µM
Kd [3]: 18.6 µM
Kd [4]: 20.4 µM
B1: P-6F, FITC-labeled variant of P-6 (peptide)
chain: NQARAQAALQAVN
modifications: also: stitched hydrocarbon staple linking residues 145, 149 and 153, FITC label, place not given here

Ki [5]: 11.6 µM
Binder: NQ[S5]RAQ[S5]ALQAVN-NH2 (staple 3-7; also: staple alkene reduced) [P-2, i, i + 4 hydrocarbon-stapled peptide derived from the PTBP1 α3-helix]
